Data on nine sequences can be found in the supplement of paper PMC10065799, “High-throughput profiling of sequence recognition by tyrosine kinases and SH2 domains using bacterial peptide display” (eLife, 2023).

One data set concerns the target c-Src SH2. In words: SH2 binding enrichment of the phosphorylated peptide, bacterial display (enrichment ratio); higher = better substrate or ligand; peptides without Tyr show the background.
For another data set, the target named is Grb2 SH2 (UniProt P62993). The data set is described as above.
For another data set, the target named is SHP2-C SH2. The data set is described as above.
Another data set deals with MERTK (UniProt Q12866). Put plainly: phosphorylation enrichment, bacterial display (enrichment ratio); higher = better substrate or ligand; peptides without Tyr show the background.
The target in a further data set is Hck (UniProt P08631). Described as above.
In another data set the test system is AncSZ. Described as above.
The target of another data set is EPHB2 (UniProt P29323). Described as above.
The next data set concerns c-Abl (mouse). The description is as above.
Another data set concerns the target Fyn (UniProt P06241). The description is as above.
In another data set the test system is c-Src. The data set is described as above.
A further data set deals with Jak2 (UniProt O60674). The description is as above.
The next data set addresses EPHB1 (UniProt P54762). The description is as above.
A further data set has as its target FGFR3 (UniProt P22607). The data set is described as above.
The target in the next data set is FGFR1 (UniProt P11362). The data set is described as above.
Another data set has as its target Fes (UniProt P07332). The data set is described as above.
Another data set relates to Fer (mouse). The data set is described as above.
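Throughout, for SH2 binding enrichment of the phosphorylated peptide, bacterial display: peptide library displayed on the E. coli surface as eCPX fusions, selected cells deep-sequenced, score is each peptide's frequency after selection divided by its frequency in the input.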
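Throughout, for phosphorylation enrichment, bacterial display: 11-residue human phosphosite peptides and single-mutation variants displayed on the E. coli surface, counted by deep sequencing, each peptide's frequency after selection divided by its frequency in the unselected input library; frequency after pTyr selection over input frequency; kinase dosed for 20-30% of maximal phosphorylation in three min.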

Sequence of Jak2 (O60674 whole entry, looked up): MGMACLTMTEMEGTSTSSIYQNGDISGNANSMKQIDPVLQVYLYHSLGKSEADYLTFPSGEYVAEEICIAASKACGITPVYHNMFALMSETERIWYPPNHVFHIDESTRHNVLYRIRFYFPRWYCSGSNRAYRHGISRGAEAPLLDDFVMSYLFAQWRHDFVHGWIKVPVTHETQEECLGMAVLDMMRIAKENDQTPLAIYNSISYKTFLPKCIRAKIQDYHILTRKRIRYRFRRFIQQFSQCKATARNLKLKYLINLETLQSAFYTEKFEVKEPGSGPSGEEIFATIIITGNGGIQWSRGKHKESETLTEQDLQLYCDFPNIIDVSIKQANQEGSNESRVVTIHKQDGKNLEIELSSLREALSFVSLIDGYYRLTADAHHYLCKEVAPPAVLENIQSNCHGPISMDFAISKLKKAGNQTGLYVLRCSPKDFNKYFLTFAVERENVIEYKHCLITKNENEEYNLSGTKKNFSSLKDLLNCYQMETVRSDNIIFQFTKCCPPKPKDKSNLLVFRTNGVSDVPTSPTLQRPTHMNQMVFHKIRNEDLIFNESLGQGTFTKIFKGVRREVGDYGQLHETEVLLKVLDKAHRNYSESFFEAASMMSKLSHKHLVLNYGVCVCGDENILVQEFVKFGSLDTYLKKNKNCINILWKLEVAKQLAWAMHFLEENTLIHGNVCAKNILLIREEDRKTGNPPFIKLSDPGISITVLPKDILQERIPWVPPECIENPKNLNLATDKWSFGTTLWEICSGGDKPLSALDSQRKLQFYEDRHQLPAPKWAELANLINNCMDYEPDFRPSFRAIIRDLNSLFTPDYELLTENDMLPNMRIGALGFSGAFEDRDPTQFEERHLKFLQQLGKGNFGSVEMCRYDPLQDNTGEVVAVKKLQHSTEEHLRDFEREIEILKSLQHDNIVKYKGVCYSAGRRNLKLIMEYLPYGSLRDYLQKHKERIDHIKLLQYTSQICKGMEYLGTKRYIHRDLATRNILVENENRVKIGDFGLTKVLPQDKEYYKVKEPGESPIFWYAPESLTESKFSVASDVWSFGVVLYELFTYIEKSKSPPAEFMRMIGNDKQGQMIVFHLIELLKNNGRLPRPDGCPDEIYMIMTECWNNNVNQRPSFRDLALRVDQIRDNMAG
Sequence of Hck (P08631 whole entry, looked up): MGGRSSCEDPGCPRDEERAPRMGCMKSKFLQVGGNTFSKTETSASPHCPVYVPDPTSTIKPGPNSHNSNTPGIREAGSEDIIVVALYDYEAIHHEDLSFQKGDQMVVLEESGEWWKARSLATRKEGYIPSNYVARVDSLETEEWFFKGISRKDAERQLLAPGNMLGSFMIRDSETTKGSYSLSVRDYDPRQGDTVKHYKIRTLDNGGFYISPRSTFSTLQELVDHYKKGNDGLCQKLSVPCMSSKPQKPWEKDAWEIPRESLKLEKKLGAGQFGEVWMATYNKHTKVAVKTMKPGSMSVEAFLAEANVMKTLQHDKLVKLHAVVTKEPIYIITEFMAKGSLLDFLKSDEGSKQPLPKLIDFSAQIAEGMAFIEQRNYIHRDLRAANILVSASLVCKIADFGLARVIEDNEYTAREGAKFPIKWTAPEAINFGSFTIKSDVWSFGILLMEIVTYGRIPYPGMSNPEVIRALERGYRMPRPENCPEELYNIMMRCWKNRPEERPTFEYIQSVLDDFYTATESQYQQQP
Sequence of EPHB1 (P54762 whole entry, looked up): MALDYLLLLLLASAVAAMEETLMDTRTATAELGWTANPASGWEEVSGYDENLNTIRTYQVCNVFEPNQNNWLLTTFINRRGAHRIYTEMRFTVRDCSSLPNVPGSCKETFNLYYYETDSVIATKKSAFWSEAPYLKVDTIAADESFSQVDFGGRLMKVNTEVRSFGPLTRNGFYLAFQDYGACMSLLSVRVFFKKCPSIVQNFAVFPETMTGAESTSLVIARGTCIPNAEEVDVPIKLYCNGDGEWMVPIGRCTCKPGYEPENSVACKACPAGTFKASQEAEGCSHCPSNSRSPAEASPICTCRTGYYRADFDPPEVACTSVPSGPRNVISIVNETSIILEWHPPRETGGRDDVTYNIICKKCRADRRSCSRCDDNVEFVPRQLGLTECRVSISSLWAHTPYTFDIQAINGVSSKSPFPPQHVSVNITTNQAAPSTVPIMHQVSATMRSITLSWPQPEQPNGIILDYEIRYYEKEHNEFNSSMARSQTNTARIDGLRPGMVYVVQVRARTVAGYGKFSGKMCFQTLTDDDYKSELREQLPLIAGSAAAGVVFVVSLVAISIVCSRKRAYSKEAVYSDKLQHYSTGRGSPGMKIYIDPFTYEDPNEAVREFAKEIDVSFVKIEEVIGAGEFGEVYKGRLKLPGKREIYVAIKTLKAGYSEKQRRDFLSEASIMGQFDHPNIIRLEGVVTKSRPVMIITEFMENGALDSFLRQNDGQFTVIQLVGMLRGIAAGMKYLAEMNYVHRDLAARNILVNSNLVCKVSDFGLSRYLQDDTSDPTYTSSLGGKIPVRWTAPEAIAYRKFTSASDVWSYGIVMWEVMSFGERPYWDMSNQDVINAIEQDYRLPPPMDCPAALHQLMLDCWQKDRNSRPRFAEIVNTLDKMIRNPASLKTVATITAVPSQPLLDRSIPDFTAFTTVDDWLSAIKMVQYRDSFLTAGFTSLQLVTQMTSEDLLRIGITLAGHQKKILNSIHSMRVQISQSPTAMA
Sequence of Fes (P07332 whole entry, looked up): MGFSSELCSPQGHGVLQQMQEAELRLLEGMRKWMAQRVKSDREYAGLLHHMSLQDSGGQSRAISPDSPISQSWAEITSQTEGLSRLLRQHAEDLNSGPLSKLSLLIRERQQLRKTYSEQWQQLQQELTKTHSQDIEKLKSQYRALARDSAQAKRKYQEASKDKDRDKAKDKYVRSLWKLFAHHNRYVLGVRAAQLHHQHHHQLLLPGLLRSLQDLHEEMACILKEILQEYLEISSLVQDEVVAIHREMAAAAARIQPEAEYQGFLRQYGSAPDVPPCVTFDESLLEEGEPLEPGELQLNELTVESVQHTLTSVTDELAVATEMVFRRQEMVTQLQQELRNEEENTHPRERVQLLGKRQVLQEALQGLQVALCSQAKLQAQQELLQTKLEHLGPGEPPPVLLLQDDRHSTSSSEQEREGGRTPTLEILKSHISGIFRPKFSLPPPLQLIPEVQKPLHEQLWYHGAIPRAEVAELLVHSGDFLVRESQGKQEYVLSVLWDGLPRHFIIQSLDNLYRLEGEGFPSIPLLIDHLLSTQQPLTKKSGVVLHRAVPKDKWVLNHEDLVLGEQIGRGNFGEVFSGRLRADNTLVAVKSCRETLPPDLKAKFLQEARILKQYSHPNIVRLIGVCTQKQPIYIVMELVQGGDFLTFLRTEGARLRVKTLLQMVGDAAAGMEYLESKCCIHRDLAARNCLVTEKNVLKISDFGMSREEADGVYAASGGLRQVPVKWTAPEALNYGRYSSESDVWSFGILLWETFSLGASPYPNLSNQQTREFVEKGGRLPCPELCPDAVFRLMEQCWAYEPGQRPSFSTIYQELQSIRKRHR
Sequence of Grb2 SH2 (P62993 whole entry, looked up): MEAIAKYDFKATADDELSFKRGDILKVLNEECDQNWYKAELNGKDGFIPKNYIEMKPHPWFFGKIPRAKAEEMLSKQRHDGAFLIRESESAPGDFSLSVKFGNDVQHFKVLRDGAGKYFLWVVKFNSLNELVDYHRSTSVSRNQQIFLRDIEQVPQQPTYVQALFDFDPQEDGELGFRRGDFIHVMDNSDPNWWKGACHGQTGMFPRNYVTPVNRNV
Sequence of Fyn (P06241 whole entry, looked up): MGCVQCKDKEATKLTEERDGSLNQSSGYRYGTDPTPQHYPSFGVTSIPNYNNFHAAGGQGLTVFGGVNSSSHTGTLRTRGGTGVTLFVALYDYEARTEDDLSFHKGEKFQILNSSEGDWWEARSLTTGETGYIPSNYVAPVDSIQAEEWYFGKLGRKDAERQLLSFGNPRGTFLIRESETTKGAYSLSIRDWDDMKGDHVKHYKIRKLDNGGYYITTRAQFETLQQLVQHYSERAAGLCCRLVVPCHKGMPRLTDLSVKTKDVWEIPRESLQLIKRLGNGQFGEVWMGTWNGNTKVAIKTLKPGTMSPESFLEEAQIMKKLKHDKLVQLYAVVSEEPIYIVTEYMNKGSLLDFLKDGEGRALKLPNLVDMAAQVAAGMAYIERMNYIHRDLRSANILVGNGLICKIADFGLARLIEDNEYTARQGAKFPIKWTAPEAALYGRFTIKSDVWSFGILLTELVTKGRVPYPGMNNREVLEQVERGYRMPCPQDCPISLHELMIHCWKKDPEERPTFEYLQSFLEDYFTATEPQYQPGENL
Sequence of FGFR1 (P11362 whole entry, looked up): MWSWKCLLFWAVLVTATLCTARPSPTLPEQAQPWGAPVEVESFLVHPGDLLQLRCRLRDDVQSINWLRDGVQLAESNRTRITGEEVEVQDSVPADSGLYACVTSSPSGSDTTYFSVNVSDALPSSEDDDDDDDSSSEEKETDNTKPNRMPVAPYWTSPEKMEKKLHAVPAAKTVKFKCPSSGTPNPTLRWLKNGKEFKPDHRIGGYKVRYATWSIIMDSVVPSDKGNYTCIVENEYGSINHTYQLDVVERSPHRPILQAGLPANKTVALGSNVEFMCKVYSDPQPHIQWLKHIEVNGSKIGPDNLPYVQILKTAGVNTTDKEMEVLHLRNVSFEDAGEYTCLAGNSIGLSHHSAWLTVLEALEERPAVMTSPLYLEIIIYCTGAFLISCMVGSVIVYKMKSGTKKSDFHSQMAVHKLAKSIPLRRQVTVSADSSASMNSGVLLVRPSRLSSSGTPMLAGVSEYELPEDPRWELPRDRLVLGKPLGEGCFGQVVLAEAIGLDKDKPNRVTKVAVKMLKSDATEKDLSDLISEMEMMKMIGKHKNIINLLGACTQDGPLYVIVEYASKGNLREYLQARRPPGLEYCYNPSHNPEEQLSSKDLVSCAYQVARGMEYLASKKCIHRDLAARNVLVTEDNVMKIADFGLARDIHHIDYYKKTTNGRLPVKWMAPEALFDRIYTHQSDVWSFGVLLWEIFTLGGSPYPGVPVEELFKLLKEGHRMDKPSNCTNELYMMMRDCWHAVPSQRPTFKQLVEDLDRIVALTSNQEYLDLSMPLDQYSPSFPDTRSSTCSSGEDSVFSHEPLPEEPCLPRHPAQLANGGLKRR

For the sequence PDSVDYPKKGY [CTSK_Y121_R122P], the results for the SH2 binding enrichment in the data set with c-Src SH2, with Grb2 SH2 and with SHP2-C SH2 were 0.601, 0.841 and 0.724, respectively. In addition, the phosphorylation enrichment with MERTK stood at 0.537; in the data set with Hck, 0.614; with AncSZ, 0.917; with EPHB2, 0.951; in the data set on c-Abl (mouse) it was 0.544; in the data set with Fyn, 0.759. The phosphorylation enrichment with c-Src stood at 0.569; in the data set with Jak2, 0.707; with EPHB1 it was 0.529; with FGFR3, 0.654; with FGFR1 it was 0.56; with Fes, 0.654. Moreover, the phosphorylation enrichment with Fer (mouse) was determined as 0.832.

Take GGEEFYVHFVG [KAT8_Y90_R86G_YF]: the figures for the SH2 binding enrichment with c-Src SH2, with Grb2 SH2 and with SHP2-C SH2 were 0.308, 0.626 and 0.538, respectively. For the same sequence, the phosphorylation enrichment is 0.433 with MERTK; 0.612 with Hck; 1.34 with AncSZ; 0.605 in the data set with EPHB2; 0.967 with c-Abl (mouse); 0.58 with Fyn. Also, the phosphorylation enrichment was determined as 0.501 with c-Src; 1.24 with Jak2; 0.747 with EPHB1; 0.96 with FGFR3; 0.648 with FGFR1; 1.39 with Fes. Further, in the data set on Fer (mouse), the phosphorylation enrichment came to 0.592.

In the case of LARNMYDKEFF [MET_Y1230_D1228N_YF], the SH2 binding enrichment with c-Src SH2 was determined as 0.541; with Grb2 SH2, 0.427; with SHP2-C SH2, 0.739. Moreover, the phosphorylation enrichment with MERTK is 0.578; with Hck, 0.694; in the data set with AncSZ, 1.03; in the data set with EPHB2, 0.592; in the data set with c-Abl (mouse) it was 0.793; in the data set with Fyn it was 0.529. The phosphorylation enrichment in the data set with c-Src turned out to be 0.626; in the data set with Jak2 it was 1; with EPHB1 it was 0.706; in the data set with FGFR3, 0.62; with FGFR1, 0.602; in the data set with Fes, 1.01. Also, the phosphorylation enrichment in the data set with Fer (mouse) worked out at 0.541.

For the sequence CLLHCYFSQIH [MCM3AP_Y873_R878H], the SH2 binding enrichment with c-Src SH2 came to 1.38; in the data set with Grb2 SH2 it was 2.04; in the data set with SHP2-C SH2 it was 1.53. The phosphorylation enrichment in the data set with MERTK was 0.431; in the data set with Hck it was 0.476; with AncSZ it was 0.886; in the data set with EPHB2 it was 0.453; in the data set on c-Abl (mouse), 0.664; in the data set with Fyn it was 0.43. In addition, the phosphorylation enrichment with c-Src turned out to be 0.476; in the data set with Jak2, 1.26; in the data set with EPHB1 it was 0.626; with FGFR3, 0.736; with FGFR1, 0.689; with Fes, 1.29. In the data set on Fer (mouse), the phosphorylation enrichment stood at 0.569.

Turning to ATDLAYYLVCK [ASL_Y375_R379C], the SH2 binding enrichment with c-Src SH2 amounted to 0.59; with Grb2 SH2 it was 0.803; with SHP2-C SH2, 0.505. For the same sequence, the phosphorylation enrichment is 0.884 with MERTK; 1.02 with Hck; 2.13 in the data set on AncSZ; 0.885 in the data set with EPHB2; 1.04 with c-Abl (mouse); 0.852 with Fyn. Besides, the phosphorylation enrichment with c-Src is 1.06; with Jak2, 2.82; with EPHB1 it was 1.08; with FGFR3, 3.06; with FGFR1, 3.43; with Fes, 1.77. In the data set on Fer (mouse), the phosphorylation enrichment was 0.696.

Take IVFTSYFLTIL [TAS2R16_Y239]: the SH2 binding enrichment with c-Src SH2 was 0.897; in the data set with Grb2 SH2, 0.918; in the data set with SHP2-C SH2, 0.955. In addition, the phosphorylation enrichment was 0.476 with MERTK; 0.633 in the data set with Hck; 1.45 with AncSZ; 0.709 in the data set with EPHB2; 1.05 in the data set with c-Abl (mouse); 0.578 in the data set with Fyn. Also, the phosphorylation enrichment in the data set with c-Src was determined as 0.514; with Jak2, 1.76; with EPHB1, 0.676; with FGFR3, 0.976; with FGFR1, 0.641; with Fes it was 1.89. The phosphorylation enrichment in the data set on Fer (mouse) turned out to be 0.511.

On to KANEFYPVVII [ADAMTS18_Y765_L769I_YF], for which the SH2 binding enrichment worked out at 0.349 with c-Src SH2, 0.626 in the data set with Grb2 SH2 and 0.597 in the data set with SHP2-C SH2. Besides, the phosphorylation enrichment in the data set with MERTK is 0.386; with Hck it was 0.458; with AncSZ, 1.03; with EPHB2, 0.695; with c-Abl (mouse) it was 0.663; in the data set with Fyn, 0.458. In addition, the phosphorylation enrichment in the data set with c-Src was found to be 0.478; with Jak2, 1.06; in the data set with EPHB1 it was 0.411; with FGFR3 it was 1.26; with FGFR1, 1.9; with Fes, 1.16. The phosphorylation enrichment in the data set on Fer (mouse) stood at 0.456.

With LHQSTYQRYDV [SLC7A14_Y693], the SH2 binding enrichment with c-Src SH2 was found to be 1.16; in the data set with Grb2 SH2, 0.772; in the data set with SHP2-C SH2 it was 0.694. In addition, the phosphorylation enrichment in the data set with MERTK was 0.364; in the data set with Hck it was 0.505; in the data set with AncSZ, 0.341; with EPHB2, 0.53; with c-Abl (mouse), 0.444; in the data set with Fyn it was 0.458. The phosphorylation enrichment in the data set with c-Src is 1.11; with Jak2 it was 0.545; with EPHB1, 0.293; in the data set with FGFR3, 0.426; in the data set with FGFR1, 0.236; with Fes it was 0.404. Also, the phosphorylation enrichment in the data set on Fer (mouse) is 0.392.

On to GKGGSYSKAEW [HLA-E_Y341], for which the SH2 binding enrichment in the data set with c-Src SH2 came out at 0.624; in the data set with Grb2 SH2 it was 0.949; with SHP2-C SH2 it was 0.512. For the same sequence, the phosphorylation enrichment amounted to 0.405 with MERTK; 0.416 with Hck; 0.493 in the data set with AncSZ; 0.467 with EPHB2; 0.496 in the data set with c-Abl (mouse); 0.415 in the data set with Fyn. The phosphorylation enrichment in the data set with c-Src was determined as 0.375; with Jak2, 0.567; with EPHB1, 0.481; with FGFR3, 0.378; with FGFR1, 0.466; with Fes, 0.613. The phosphorylation enrichment in the data set with Fer (mouse) was 0.368.
